Experimental data published in PMC5531557, “Crystal structure and kinetic analysis of the class B3 di-zinc metallo-β-lactamase LRA-12 from an Alaskan soil metagenome” (PLoS ONE, 2017).

What was measured:
[1] = target: T1, LRA-12 (uncultured bacterium BLR12, UniProt B5L5V5); test: residual ertapenem hydrolysis, UV absorbance; type: biochemical
T1 construct: gene blaLRA-12; pET28a(+) in E. coli BL21(DE3), N-terminal His tag cut by thrombin; mature enzyme of 269 residues (Gln26-Asn306 in BBL numbering); di-zinc

[2] = target: T1, LRA-12; test: competition with ceftazidime hydrolysis, UV absorbance; type: biochemical
[3] = test system: C[C@@H](O)[C@H]1C(=O)N2C(C(=O)O)=C(SCCN=CN)C[C@H]12; test: purified protein; type: biochemical, uncultured bacterium BLR12; settings: 10 mM HEPES, 20 mM NaCl, pH 7.5, room temperature
[4] = test system: CO/N=C(\C(=O)N[C@@H]1C(=O)N2C(C(=O)O)=C(COC(C)=O)CS[C@H]12)c1csc(N)n1; test: purified protein; type: biochemical, uncultured bacterium BLR12; settings: 10 mM HEPES, 20 mM NaCl, pH 7.5, room temperature
[5] = test system: CC(C)(O/N=C(\C(=O)N[C@@H]1C(=O)N2C(C(=O)[O-])=C(C[n+]3ccccc3)CS[C@H]12)c1csc(N)n1)C(=O)O; test: purified protein; type: biochemical, uncultured bacterium BLR12; settings: 10 mM HEPES, 20 mM NaCl, pH 7.5, room temperature
[6] = test system: CO[C@@]1(NC(=O)Cc2cccs2)C(=O)N2C(C(=O)O)=C(COC(N)=O)CS[C@@H]21; test: purified protein; type: biochemical, uncultured bacterium BLR12; settings: 10 mM HEPES, 20 mM NaCl, pH 7.5, room temperature
[7] = test system: CO/N=C(\C(=O)N[C@@H]1C(=O)N2C(C(=O)O)=C(COC(N)=O)CS[C@H]12)c1ccco1; test: purified protein; type: biochemical, uncultured bacterium BLR12; settings: 10 mM HEPES, 20 mM NaCl, pH 7.5, room temperature
[8] = test system: C[C@@H](O)[C@H]1C(=O)N2C(C(=O)O)=C(S[C@@H]3CN[C@H](C(=O)Nc4cccc(C(=O)O)c4)C3)[C@H](C)[C@H]12; test: purified protein; type: biochemical, uncultured bacterium BLR12; settings: 10 mM HEPES, 20 mM NaCl, pH 7.5, room temperature
[9] = test system: CO/N=C(\C(=O)N[C@@H]1C(=O)N2C(C(=O)[O-])=C(C[N+]3(C)CCCC3)CS[C@H]12)c1csc(N)n1; test: purified protein; type: biochemical, uncultured bacterium BLR12; settings: 10 mM HEPES, 20 mM NaCl, pH 7.5, room temperature
[10] = test system: C[C@@H](O)[C@H]1C(=O)N2C(C(=O)O)=C(S[C@@H]3CN[C@H](C(=O)N(C)C)C3)[C@H](C)[C@H]12; test: purified protein; type: biochemical, uncultured bacterium BLR12; settings: 10 mM HEPES, 20 mM NaCl, pH 7.5, room temperature
[11] = test system: CC(=O)OCC1=C(C(=O)O)N2C(=O)[C@@H](NC(=O)Cc3cccs3)[C@H]2SC1; test: purified protein; type: biochemical, uncultured bacterium BLR12; settings: 10 mM HEPES, 20 mM NaCl, pH 7.5, room temperature
[12] = test system: CC1(C)S[C@@H]2[C@H](NC(=O)Cc3ccccc3)C(=O)N2[C@H]1C(=O)O; test: purified protein; type: biochemical, uncultured bacterium BLR12; settings: 10 mM HEPES, 20 mM NaCl, pH 7.5, room temperature
[13] = test system: CCN1CCN(C(=O)N[C@@H](C(=O)N[C@@H]2C(=O)N3[C@@H]2SC(C)(C)[C@@H]3C(=O)O)c2ccccc2)C(=O)C1=O; test: purified protein; type: biochemical, uncultured bacterium BLR12; settings: 10 mM HEPES, 20 mM NaCl, pH 7.5, room temperature

T1 sequence (B5L5V5 entry or part of it): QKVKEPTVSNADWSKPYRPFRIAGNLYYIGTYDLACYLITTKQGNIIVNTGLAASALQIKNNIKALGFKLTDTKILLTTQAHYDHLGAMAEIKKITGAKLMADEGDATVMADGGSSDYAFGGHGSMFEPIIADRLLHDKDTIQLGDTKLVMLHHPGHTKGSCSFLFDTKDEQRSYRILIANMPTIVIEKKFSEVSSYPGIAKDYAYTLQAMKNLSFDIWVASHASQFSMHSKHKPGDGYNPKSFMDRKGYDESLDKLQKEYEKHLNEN

O=C(O)c1cccc(C(=O)O)n1 [DPA, pyridine-2,6-dicarboxylic acid]
IC50 [1]: 460 µM

C[C@H]1[C@H](NC(=O)/C(=N\OC(C)(C)C(=O)O)c2csc(N)n2)C(=O)N1S(=O)(=O)O [aztreonam]
Ki [2]: 146 µM

LRA-12 (uncultured bacterium BLR12)
Km [3]: 39 ± 7 µM | kcat [3]: 66 ± 5 s⁻¹ | kcat/Km [3]: 1.69e+06 ± 420000 M⁻¹ s⁻¹ | Km [4]: 36 ± 4 µM | kcat [4]: 7 ± 0.3 s⁻¹ | kcat/Km [4]: 190000 ± 30000 M⁻¹ s⁻¹ | Km [5]: 59 ± 8 µM | kcat [5]: 12 ± 0.8 s⁻¹ | kcat/Km [5]: 200000 ± 40000 M⁻¹ s⁻¹ | Km [6]: 4 ± 0.6 µM | kcat [6]: 7 ± 0.4 s⁻¹ | kcat/Km [6]: 1.75e+06 ± 320000 M⁻¹ s⁻¹ | Km [7]: 20 ± 3.4 µM | kcat [7]: 16 ± 0.9 s⁻¹ | kcat/Km [7]: 800000 ± 190000 M⁻¹ s⁻¹ | Km [8]: 43 ± 6 µM | kcat [8]: 57 ± 4 s⁻¹ | kcat/Km [8]: 1.33e+06 ± 270000 M⁻¹ s⁻¹ | Km [9]: 93 ± 13 µM | kcat [9]: 15 ± 1.4 s⁻¹ | kcat/Km [9]: 160000 ± 40000 M⁻¹ s⁻¹ | Km [10]: 113 ± 20 µM | kcat [10]: 95 ± 11 s⁻¹ | kcat/Km [10]: 840000 ± 230000 M⁻¹ s⁻¹ | Km [11]: 11 ± 2 µM | kcat [11]: 18 ± 0.8 s⁻¹ | kcat/Km [11]: 1.64e+06 ± 370000 M⁻¹ s⁻¹ | Km [12]: 47 ± 4 µM | kcat [12]: 70 ± 2 s⁻¹ | kcat/Km [12]: 1.49e+06 ± 150000 M⁻¹ s⁻¹ | Km [13]: 83 ± 9 µM | kcat [13]: 74 ± 3 s⁻¹ | kcat/Km [13]: 890000 ± 130000 M⁻¹ s⁻¹

O=C(O)CN(CCN(CC(=O)O)CC(=O)O)CC(=O)O [EDTA]
IC50 [1]: 113 µM
